The results in this text go back to US7217548B2, “N-acetylglucosaminlytransferase and polynucleotide encoding the same” (National Institute of Advanced Industrial Science and …, priority 2000, dated 2007).

Substrate in the data set: CC(=O)N[C@@H](C)C(=O)N[C@@H](C)C(=O)N1CCC[C@H]1C(=O)N[C@H](C(=O)N1CCC[C@H]1C(=O)N[C@H](C(=O)N[C@@H](C)C(=O)N[C@@H](C)C(=O)N1CCC[C@H]1C(N)=O)C(C)C)[C@@H](C)O[C@H]1O[C@H](CO)[C@@H](O)[C@H](O)[C@@H]1O
As to the kind of experiment: Substrate specificity and kinetic parameters of solubilized human OMGnT enzyme (S). In kind it is biochemical. As to conditions: other: 125 mM MOPS pH7.3, 0.2 mM UDP-GlcNAc, 7.5 mM MnCl2, 37° C., 2 hours, pH 7.3. How it is done:
[…] […] The reaction mixture was then filtered with a filter Ultrafree-MC (Millipore) having a pore size of 0.22 μm to remove solids, and analyzed by Wakopak 5C18-200 column (4.6×250 mm, Wako Pure Chemical Industries, Ltd.). The separation was carried out using concentration gradient with Solution A and Solution B at a flow rate of 1.0 ml/min. […] Peptide detection was carried out at 214 nm, and the radioactivity of each fraction was assayed using a liquid scintillation counter.
The activity of GnT-1 was assayed with a method by Yoshida et al. [Yoshida, S., Suzuki, M., Yamano, S., Takeuchi, M., Ikenaga, H., Kioka, N., Sakai, H., and Komano, T., Glycobiology, (1999), 9, 53–58] as described below. A 20 μl reaction solution was prepared by adding an enzyme source thereto so as to have a final concentration of 100 mM MES (pH 6.0), 20 mM MnCl2, 5 μM Manα1–6(Manα1–3)Manα1–6(Manα1–3)Manβ1–4GlcNAcβ1–4GlcNAc-PA(M5GN2-PA; Takara Shuzo, PA-Sugar Chain 017), 1 mM UDP-GlcNAc, 100 mM GlcNAc, 5 mM AMP, 1% Triton X-100, and 0.2% BSA. The reaction solution was incubated at 37° C. for 1 hour, and the reaction was terminated in boiling water. Thereafter, the reaction solution was analyzed by a reverse phase HPLC (Cosmosil 5C18-AR column) available from Nacalai Tesque. […]

B1: His-Xpress-sOMGnT(S) (Homo sapiens; M623V) (protein)
chain: SSAEEAECHWADTELNRRRRRFCSKVEGYGSVCSCKDPTPIEFSPDPLPDNKVLNVPVAVIAGNRPNYLYRMLRSLLSAQGVSPQMITVFIDGYYEEPMDVVALFGLRGIQHTPISIKNARVSQHYKASLTATFNLFPEAKFAVVLEEDLDIAVDFFSFLSQSIHLLEEDDSLYCISAWNDQGYEHTAEDPALLYRVETMPGLGWVLRRSLYKEELEPKWPTPEKLWDWDMWMRMPEQRRGRECIIPDVSRSYHFGIVGLNMNGYFHEAYFKKHKFNTVPGVQLRNVDSLKKEAYEVEVHRLLSEAEVLDHSKNPCEDSFLPDTEGHTYVAFIRMEKDDDFTTWTQLAKCLHIWDLDVRGNHRGLWRLFRKKNHFLVVGVPASPYSVKKPPSVTPIFLEPPPKEEGAPGAPEQT
notes: Ig kappa chain secretory signal (N); made in house; host or cells: HEK293T (transient, secreted into serum-free medium)
For B1, the Michaelis-Menten constant (Km) turned out to be 1360 µM.

As a reminder, the Km is the substrate concentration at which the rate is half of its maximum.
